{"source": "paper PMC4853233", "test": "anti-FLAG western blot, 293T cells", "settings": "glycan lost; control: WT-TWSG1 adenovirus"}
{"protein": "twisted gastrulation (TWSG1): N80Q/N146Q (protein) parent chain: MKSHYIVLALASLTFLLCLPVSQSCNKALCASDVSKCLIQELCQCRPGEGNCPCCKECMLCLGALWDECCDCVGMCNPRNYSDTPPTSKSTVEELHEPIPSLFRALTEGDTQLNWNIVSFPVAEELSHHENLVSFLETVNQLHHQNVSVPSNNVHAPFPSDKERMCTVVYFDDCMSIHQCKISCESMGASKYRWFHNACCECIGPECIDYGSKTVKCMNCMF", "values": [{"measurement": "expression_or_secretion", "value": "no change"}]}
